In patent US20250258173A1 (FUJIREBIO, published 2025):
Read-outs that look alike come from different tables or passages of the source.

What was measured:
[1] = target: T1, recombinant N protein of SARS-CoV-2 (whole length, 419 amino acids) (SARS-CoV-2, UniProt P0DTC9 1-419)
T1 construct: also called SARS-CoV-2 N protein; SARS-CoV-2 nucleocapsid protein

[2] = target: T1, recombinant N protein of SARS-CoV-2 …; remark: listed apart in the source
[3] = target: T1, recombinant N protein of SARS-CoV-2 …; remark: listed apart in the source
[4] = target: T1, recombinant N protein of SARS-CoV-2 …; remark: listed apart in the source

B1: anti-N protein antibody C12 (antibody, V domains shown)
VH: EVQLQESGGGLVRPGGSLKLSCAASGFTFSDYYMYWVRQTPEKRLEWVATISDGGRYSYYPDSVKGRFTVSRDNAKNNLYLQMSSLKSEDTAMYYCVRDRYDGWGSDFDVWGAGTTVTVS
VL: DVQITQSPSSMYASLGERVTITCKASQDIKSYLSWYQQKPWKSPKTLIYYATSLADGVPSRFSGSGSGQDYSLTISSLESDDTATYYCLQHGESPWTFGGGTKLEIKR
luminescence amount ratio (10 ng/mL/0 ng/mL) [1]: 22.8
luminescence amount ratio (10 ng/mL/0 ng/mL) [2]: 1.3
luminescence amount ratio (10 ng/mL/0 ng/mL) [3]: 52.8
luminescence amount ratio (10 ng/mL/0 ng/mL) [4]: 847
